We go through two molecules from publication doi:10.1101/2024.05.13.593894 (bioRxiv, 2024).

First the molecules themselves.
B1: SRC1_(630-987) (domain or fragment, human, UniProt Q15788 630-987, looked up)
chain: SHKLVQLLTTTAEQQLRHADIDTSCKDVLSCTGTSNSASANSSGGSCPSSHSSLTERHKILHRLLQEGSPSDITTLSVEPDKKDSASTSVSVTGQVQGNSSIKLELDASKKKESKDHQLLRYLLDKDEKDLRSTPNLSLDDVKVKVEKKEQMDPCNTNPTPMTKPTPEEIKLEAQSQFTADLDQFDQLLPTLEKAAQLPGLCETDRMDGAVTSVTIKSEILPASLQSATARPTSRLNRLPELELEAIDNQFGQPGTGDQIPWTNNTVTAINQSKSEDQCISSQLDELLCPPTTVEGRNDEKALLEQLVSFLSGKDETELAELDRALGIDKLVQGGGLDVLSERFPPQQATPPLIMEER
modifications: biotin (biotin-labelled in the BLI assays; site not stated)
B2: FXR120-RXRα98 heterodimer (FXR_(120-486) with RXRα_(98-462)) (complex, human)
chain 1: KKPRMGASAGRIKGDELCVVCGDRASGYHYNALTCEGCKGFFRRSITKNAVYKCKNGGNCVMDMYMRRKCQECRLRKCKEMGMLAECMYTGLLTEIQCKSKRLRKNVKQHADQTVNEDSEGRDLRQVTSTTKSCREKTELTPDQQTLLHFIMDSYNKQRMPQEITNKILKEEFSAEENFLILTEMATNHVQVLVEFTKKLPGFQTLDHEDQIALLKGSAVEAMFLRSAEIFNKKLPSGHSDLLEERIRNSGISDEYITPMFSFYKSIGELKMTQEEYALLTAIVILSPDRQYIKDREAVEKLQEPLLDVLQKLCKIHQPENPQHFACLLGRLTELRTFNHHHAEMLMSWRVNDHKFTPLLCEIWDVQ
chain 2: MNPVSSSEDIKPPLGLNGVLKVPAHPSGNMASFTKHICAICGDRSSGKHYGVYSCEGCKGFFKRTVRKDLTYTCRDNKDCLIDKRQRNRCQYCRYQKCLAMGMKREAVQEERQRGKDRNENEVESTSSANEDMPVERILEAELAVEPKTETYVEANMGLNPSSPNDPVTNICQAADKQLFTLVEWAKRIPHFSELPLDDQVILLRAGWNELLIASFSHRSIAVKDGILLATGLHVHRNSAHSAGVGAIFDRVLTELVSKMRDMQMDKTELGCLRAIVLFNPDSKGLSNPAEVEALREKVYASLEAYCKHKYPEQPGRFAKLLLRLPALRSIGLKCLEHLFFFKLIGDTPIDTFLMEMLEAPHQMT

Read-outs that look alike come from different tables or passages of the source.

Test [1] has as its target B2. Nature of the test: BLI.
Test [2] has as its target B2. Nature of the test: BLI. The source holds these as a separate data set.
Test [3] deals with B2. Kind of test: BLI. This is another data set of the same source.
Test [4] deals with SRC1_(630-987) M3 mutant (NR-box3 mutated) (human) (UniProt Q15788). Nature of the test: BLI.
In the test “SRC1_(630-987)” the target is B1. Nature of the test: SEC-MALS.

Take B1: the Kd in test [1] worked out at 43.1 nM; in test [2], 23.7 nM; in test [3], 49 nM.
With B2, the fold reduction in affinity against wild type SRC1 (630-987) in test [4] came out at 2 fold. Also, the “stoichiometry N” value in the test with SRC1_(630-987) came out at 1.
